These results are taken from the supplement of paper PMC9112550, “Optimization of the antimicrobial peptide Bac7 by deep mutational scanning” (BMC Biology, 2022).

The data set concerns Escherichia coli TOP10. The data set is described as follows: shrunken log2 fold change of peptide-encoding DNA abundance (4.5 h post-induction vs induction); higher = less antimicrobial activity (less host growth inhibition). The settings on record: time post-induction: 4.5 h; library: site-saturation at positions 5, 18, 19, 20.
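Also: peptides expressed intracellularly from a pBAD plasmid library in pooled LB shake-flask culture, induced with 0.3% L-arabinose, DNA abundance read by NGS, three biological replicates, DESeq2 with apeglm shrinkage.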

On to RRIRMRPPRLPRPRPRPEDHPRP, for which the “shrunken log2 fold change” value came to 1.29. RRIRKRPPRLPRPRPRPWDKPRP: the “shrunken log2 fold change” value is -0.0876. Take RRIRRRPPRLPRPRPRPIIAPRP: the “shrunken log2 fold change” value was determined as 0.0198. Turning to RRIRRRPPRLPRPRPRPCFGPRP, the “shrunken log2 fold change” value was found to be 0.0921. As to RRIRDRPPRLPRPRPRPYMHPRP, the “shrunken log2 fold change” value was -0.275. As to RRIRIRPPRLPRPRPRPVVHPRP, the “shrunken log2 fold change” value is -0.000671.

For RRIRPRPPRLPRPRPRPSLWPRP, the “shrunken log2 fold change” value came to 0.471. For RRIRNRPPRLPRPRPRPDTPPRP, the “shrunken log2 fold change” value is 0.0123. Regarding RRIRKRPPRLPRPRPRPVHWPRP, the “shrunken log2 fold change” value was 0.621. Regarding RRIRQRPPRLPRPRPRPQCQPRP, the “shrunken log2 fold change” value is 0.05. Regarding RRIRARPPRLPRPRPRPIVKPRP, the “shrunken log2 fold change” value was found to be 0.0456. For RRIRRRPPRLPRPRPRPDHSPRP, the “shrunken log2 fold change” value was 0.0322. As for RRIRIRPPRLPRPRPRPAAYPRP, the “shrunken log2 fold change” value was -0.919.

Consider RRIRLRPPRLPRPRPRPEKSPRP, for which the “shrunken log2 fold change” value is 0.123. Regarding RRIRQRPPRLPRPRPRPYGWPRP, the “shrunken log2 fold change” value is -0.112. For RRIRDRPPRLPRPRPRPFCEPRP, the “shrunken log2 fold change” value came to 0.159. As to RRIRCRPPRLPRPRPRPQLAPRP, the “shrunken log2 fold change” value is 0.163.

Regarding RRIRIRPPRLPRPRPRPRPQPRP, the “shrunken log2 fold change” value stood at 0.321. Under RRIRARPPRLPRPRPRPEMIPRP stands 0.0273. As to RRIRERPPRLPRPRPRPITRPRP, the “shrunken log2 fold change” value was -0.149.

Consider RRIRVRPPRLPRPRPRPQFKPRP, for which the “shrunken log2 fold change” value is -0.576.

Consider RRIRLRPPRLPRPRPRPPRTPRP, for which the “shrunken log2 fold change” value is 0.591. RRIRARPPRLPRPRPRPRNCPRP: the “shrunken log2 fold change” value amounted to 0.849. Turning to RRIRWRPPRLPRPRPRPLRSPRP, the “shrunken log2 fold change” value stood at 0.884. Take RRIRIRPPRLPRPRPRPPNRPRP: the “shrunken log2 fold change” value was -0.462.

On to RRIRIRPPRLPRPRPRPFGVPRP, for which the “shrunken log2 fold change” value was -0.0635. With RRIRRRPPRLPRPRPRPYWCPRP, the “shrunken log2 fold change” value was -0.0451. Under RRIRARPPRLPRPRPRPDPFPRP stands 0.0855; under RRIRDRPPRLPRPRPRPLMAPRP, 1.09. As to RRIRSRPPRLPRPRPRPFKFPRP, the “shrunken log2 fold change” value was -0.438. With RRIRWRPPRLPRPRPRPHANPRP, the “shrunken log2 fold change” value is -0.00914. As for RRIRGRPPRLPRPRPRPPHQPRP, the “shrunken log2 fold change” value stood at 0.806. As to RRIRKRPPRLPRPRPRPGSVPRP, the “shrunken log2 fold change” value stood at 0.162.

With RRIRFRPPRLPRPRPRPTGFPRP, the “shrunken log2 fold change” value turned out to be 0.0467.

Turning to RRIRNRPPRLPRPRPRPYYYPRP, the “shrunken log2 fold change” value is -0.0857. Consider RRIRRRPPRLPRPRPRPMFVPRP, for which the “shrunken log2 fold change” value is -0.0498. On to RRIRNRPPRLPRPRPRPRCCPRP, for which the “shrunken log2 fold change” value is -0.247.

As for RRIRERPPRLPRPRPRPGDVPRP, the “shrunken log2 fold change” value was -0.159. Under RRIRHRPPRLPRPRPRPYKAPRP stands -0.484; under RRIRKRPPRLPRPRPRPAGDPRP, 0.646. In the case of RRIRIRPPRLPRPRPRPCMEPRP, the “shrunken log2 fold change” value is -0.799. Turning to RRIRMRPPRLPRPRPRPNDEPRP, the “shrunken log2 fold change” value came to 0.699.

Take RRIRARPPRLPRPRPRPHTLPRP: the “shrunken log2 fold change” value is -0.213. For the sequence RRIRLRPPRLPRPRPRPLFLPRP, the “shrunken log2 fold change” value is -0.551. Regarding RRIRPRPPRLPRPRPRPDQRPRP, the “shrunken log2 fold change” value was 0.015. As to RRIRERPPRLPRPRPRPTPRPRP, the “shrunken log2 fold change” value was 0.669. RRIRCRPPRLPRPRPRPFYFPRP: the “shrunken log2 fold change” value is -0.593.

With RRIRQRPPRLPRPRPRPYIAPRP, the “shrunken log2 fold change” value came to 0.0259. As for RRIRFRPPRLPRPRPRPNEDPRP, the figure is 0.144. As to RRIRCRPPRLPRPRPRPSTSPRP, the “shrunken log2 fold change” value is -0.282.

Consider RRIRTRPPRLPRPRPRPMCAPRP, for which the “shrunken log2 fold change” value was -0.0676. RRIRTRPPRLPRPRPRPKIIPRP: the “shrunken log2 fold change” value is -0.211. As for RRIRDRPPRLPRPRPRPAAEPRP, the figure is 1.25.

RRIRWRPPRLPRPRPRPHMAPRP: the “shrunken log2 fold change” value stood at 0.00551. As for RRIRNRPPRLPRPRPRPDLHPRP, the figure is 1.8. Turning to RRIRWRPPRLPRPRPRPGGWPRP, the “shrunken log2 fold change” value turned out to be 0.851. Regarding RRIRVRPPRLPRPRPRPDFFPRP, the “shrunken log2 fold change” value was -0.0229. As for RRIRGRPPRLPRPRPRPWHEPRP, the “shrunken log2 fold change” value was -0.357.

Regarding RRIRCRPPRLPRPRPRPLRYPRP, the “shrunken log2 fold change” value turned out to be 0.246. With RRIRHRPPRLPRPRPRPFDQPRP, the “shrunken log2 fold change” value was -0.0783. Consider RRIRVRPPRLPRPRPRPNQPPRP, for which the “shrunken log2 fold change” value is -0.0412. Under RRIRWRPPRLPRPRPRPIEAPRP stands 0.199; under RRIRSRPPRLPRPRPRPFMKPRP, -0.205. RRIRMRPPRLPRPRPRPDNKPRP: the “shrunken log2 fold change” value is -0.336. As for RRIRLRPPRLPRPRPRPNCEPRP, the “shrunken log2 fold change” value was -0.0439. As for RRIRFRPPRLPRPRPRPMTIPRP, the figure is -0.182; as for RRIRFRPPRLPRPRPRPQARPRP, 0.148; as for RRIRIRPPRLPRPRPRPHQHPRP, -0.351. As for RRIRFRPPRLPRPRPRPSKSPRP, the “shrunken log2 fold change” value is -0.123. As for RRIRIRPPRLPRPRPRPYTHPRP, the figure is -1.09. On to RRIRCRPPRLPRPRPRPENFPRP, for which the “shrunken log2 fold change” value was -0.32.

In the case of RRIRARPPRLPRPRPRPESHPRP, the “shrunken log2 fold change” value came to 1.04. On to RRIRTRPPRLPRPRPRPSAGPRP, for which the “shrunken log2 fold change” value was -0.0241. Regarding RRIRLRPPRLPRPRPRPRGSPRP, the “shrunken log2 fold change” value was 0.16. For RRIRERPPRLPRPRPRPEGMPRP, the “shrunken log2 fold change” value turned out to be 0.046.

RRIRQRPPRLPRPRPRPFTPPRP: the “shrunken log2 fold change” value is -0.388. As to RRIRHRPPRLPRPRPRPTAGPRP, the “shrunken log2 fold change” value is -0.0268. On to RRIRWRPPRLPRPRPRPFTCPRP, for which the “shrunken log2 fold change” value turned out to be 0.000407. Consider RRIRKRPPRLPRPRPRPTLRPRP, for which the “shrunken log2 fold change” value stood at 1.01. Take RRIRCRPPRLPRPRPRPYCCPRP: the “shrunken log2 fold change” value was -0.135.

As to RRIRDRPPRLPRPRPRPCGQPRP, the “shrunken log2 fold change” value was -0.0223. In the case of RRIRYRPPRLPRPRPRPEFPPRP, the “shrunken log2 fold change” value stood at 0.011. RRIRYRPPRLPRPRPRPYCYPRP: the “shrunken log2 fold change” value is -1.12.

Turning to RRIRFRPPRLPRPRPRPHRNPRP, the “shrunken log2 fold change” value is -0.257. As for RRIRIRPPRLPRPRPRPNLLPRP, the “shrunken log2 fold change” value was -0.309.

For RRIRRRPPRLPRPRPRPVTWPRP, the “shrunken log2 fold change” value is 0.182. RRIRSRPPRLPRPRPRPQGMPRP: the “shrunken log2 fold change” value was -0.124. On to RRIRDRPPRLPRPRPRPGMPPRP, for which the “shrunken log2 fold change” value was -0.221. Turning to RRIRERPPRLPRPRPRPHTAPRP, the “shrunken log2 fold change” value was -0.14. RRIRQRPPRLPRPRPRPVEIPRP: the “shrunken log2 fold change” value is -0.0298. In the case of RRIRDRPPRLPRPRPRPQQRPRP, the “shrunken log2 fold change” value was found to be 0.147. As to RRIRRRPPRLPRPRPRPHDTPRP, the “shrunken log2 fold change” value was -0.0817. RRIRARPPRLPRPRPRPSCRPRP: the “shrunken log2 fold change” value was 0.248. Consider RRIRYRPPRLPRPRPRPTDKPRP, for which the “shrunken log2 fold change” value is -0.347. Turning to RRIRMRPPRLPRPRPRPFAPPRP, the “shrunken log2 fold change” value was 0.633. In the case of RRIRWRPPRLPRPRPRPEYMPRP, the “shrunken log2 fold change” value was -0.0342. As for RRIRVRPPRLPRPRPRPPVEPRP, the figure is 0.424; as for RRIRYRPPRLPRPRPRPLILPRP, -0.767; as for RRIRDRPPRLPRPRPRPPVAPRP, 0.304. On to RRIRWRPPRLPRPRPRPGLCPRP, for which the “shrunken log2 fold change” value was 0.412.

With RRIRARPPRLPRPRPRPFGGPRP, the “shrunken log2 fold change” value came out at 0.0726.

For RRIRRRPPRLPRPRPRPFGDPRP, the “shrunken log2 fold change” value is -0.0397. As for RRIRMRPPRLPRPRPRPGVEPRP, the figure is 1.39. For RRIRQRPPRLPRPRPRPYGGPRP, the “shrunken log2 fold change” value was -0.29.

Regarding RRIRCRPPRLPRPRPRPRNEPRP, the “shrunken log2 fold change” value is -0.0561. As for RRIRVRPPRLPRPRPRPGFPPRP, the “shrunken log2 fold change” value was 0.141. Under RRIRKRPPRLPRPRPRPEKLPRP stands 0.103; under RRIRDRPPRLPRPRPRPCTHPRP, -0.0766; under RRIRNRPPRLPRPRPRPYMMPRP, -0.118. Under RRIRARPPRLPRPRPRPTWPPRP stands 1.13. Regarding RRIRPRPPRLPRPRPRPEMFPRP, the “shrunken log2 fold change” value was -0.112. As for RRIRARPPRLPRPRPRPLNHPRP, the figure is -0.265; as for RRIRCRPPRLPRPRPRPIDLPRP, -0.271. Consider RRIRGRPPRLPRPRPRPFERPRP, for which the “shrunken log2 fold change” value was -0.012. As to RRIRLRPPRLPRPRPRPVAAPRP, the “shrunken log2 fold change” value turned out to be 0.382. RRIRTRPPRLPRPRPRPENIPRP: the “shrunken log2 fold change” value was -0.0809. Take RRIRRRPPRLPRPRPRPVNLPRP: the “shrunken log2 fold change” value was found to be 0.219. Take RRIRNRPPRLPRPRPRPWYGPRP: the “shrunken log2 fold change” value was -0.56. For the sequence RRIRARPPRLPRPRPRPINSPRP, the “shrunken log2 fold change” value was -0.213. Under RRIRNRPPRLPRPRPRPLHKPRP stands -0.101; under RRIRARPPRLPRPRPRPKNNPRP, -0.0541. For the sequence RRIRKRPPRLPRPRPRPHVLPRP, the “shrunken log2 fold change” value was found to be 0.0607. With RRIRSRPPRLPRPRPRPREPPRP, the “shrunken log2 fold change” value came to 0.284. As for RRIRWRPPRLPRPRPRPEMEPRP, the “shrunken log2 fold change” value stood at 0.451. As for RRIRFRPPRLPRPRPRPGTHPRP, the “shrunken log2 fold change” value was 1.26.
